Assay results taken from patent US8278109.

Key:
[1] = biological target: JEG-3 derived purified hCG-H (human) (UniProt P01215); experiment: SPR (Biacore); 7 injections of B152 at 20-100 micrograms/ml over JEG-3 hCG-H; lower end
[2] = biological target: JEG-3 derived purified hCG-H (human) (UniProt P01215); experiment: SPR (Biacore); 7 injections of B152 at 20-100 micrograms/ml over JEG-3 hCG-H; at 100 micrograms/ml
[3] = biological target: JEG-3 derived purified hCG-H (human) (UniProt P01215); experiment: SPR (Biacore); B152 concentration (100 micrograms/ml) giving 223 RU on hCG-H compared with SMA 3E8 and SMA 4D8

Chain of UniProt P01215 (P01215 25-116, chain 1 of 2, other chains not shown): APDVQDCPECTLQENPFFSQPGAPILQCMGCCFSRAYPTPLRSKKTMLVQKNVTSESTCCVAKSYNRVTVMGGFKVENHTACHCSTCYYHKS

B152 (antibody)
response [1]: 60 RU | response [2]: 223 RU | fold antibody concentration needed for the response, against SMA 3E8 and SMA 4D8 [3]: 50 to 100 fold
